How the values were obtained:
Assay in all cases: IEDB peptide-MHC binding, purified MHC/competitive/fluorescence; filed as Kd, often an IC50 or EC50 that approximates it; ≥ and ≤ were set here for values at or beyond the usual limits of such assays
Settings in all cases: source organism: Entamoeba histolytica HM-1:IMSS
HLA-A*02:01 = target: HLA-A*02:01
HLA-A*02:03 = target: HLA-A*02:03
HLA-A*02:11 = target: HLA-A*02:11
HLA-A*02:16 = target: HLA-A*02:16
HLA-A*03:01 = target: HLA-A*03:01
HLA-A*11:01 = target: HLA-A*11:01
HLA-A*23:01 = target: HLA-A*23:01
HLA-A*24:03 = target: HLA-A*24:03
HLA-A*29:02 = target: HLA-A*29:02
HLA-A*66:01 = target: HLA-A*66:01
HLA-A*68:02 = target: HLA-A*68:02
HLA-B*07:02 = target: HLA-B*07:02
HLA-B*08:01 = target: HLA-B*08:01
HLA-B*15:17 = target: HLA-B*15:17
HLA-B*18:01 = target: HLA-B*18:01
HLA-B*27:03 = target: HLA-B*27:03
HLA-B*27:05 = target: HLA-B*27:05
HLA-B*39:01 = target: HLA-B*39:01
HLA-B*40:01 = target: HLA-B*40:01
HLA-B*44:02 = target: HLA-B*44:02
HLA-B*51:01 = target: HLA-B*51:01
HLA-B*53:01 = target: HLA-B*53:01
HLA-B*57:01 = target: HLA-B*57:01
HLA-B*58:01 = target: HLA-B*58:01

EVIRATYPS gave a Kd (HLA-A*02:01) of no less than 20 µM, a Kd (HLA-A*02:03) of no less than 20 µM and a Kd (HLA-A*02:11) of no less than 20 µM. It also gave a Kd (HLA-A*02:16) of no less than 20 µM, a Kd (HLA-A*03:01) of no less than 20 µM and a Kd (HLA-A*11:01) of no less than 5 µM. For the same sequence, the Kd (HLA-A*23:01) was no less than 20 µM, the Kd (HLA-A*24:03) was no less than 20 µM and the Kd (HLA-A*29:02) was no less than 20 µM. The Kd (HLA-A*66:01) was 24.4 nM, the Kd (HLA-A*68:02) was 0.2 nM and the Kd (HLA-B*07:02) was no less than 5 µM. For the same sequence, the Kd (HLA-B*08:01) was no less than 5 µM, the Kd (HLA-B*15:17) was no less than 20 µM and the Kd (HLA-B*18:01) was no less than 20 µM. The Kd (HLA-B*27:03) was no less than 20 µM, the Kd (HLA-B*27:05) was no less than 5 µM and the Kd (HLA-B*39:01) was no less than 20 µM. For the same sequence, the Kd (HLA-B*40:01) was no less than 5 µM, the Kd (HLA-B*44:02) was no less than 5 µM and the Kd (HLA-B*51:01) was no less than 20 µM. For the same sequence, the Kd (HLA-B*53:01) was no less than 5 µM, the Kd (HLA-B*57:01) was no less than 20 µM and the Kd (HLA-B*58:01) was no less than 5 µM.
